Data reported in paper PMC7688135, “Two cis-regulatory SNPs upstream of ABCG2 synergistically cause the blue eggshell phenotype in the duck”.

T1: CTCF (Homo sapiens, UniProt P49711 1-727)
T1 sequence: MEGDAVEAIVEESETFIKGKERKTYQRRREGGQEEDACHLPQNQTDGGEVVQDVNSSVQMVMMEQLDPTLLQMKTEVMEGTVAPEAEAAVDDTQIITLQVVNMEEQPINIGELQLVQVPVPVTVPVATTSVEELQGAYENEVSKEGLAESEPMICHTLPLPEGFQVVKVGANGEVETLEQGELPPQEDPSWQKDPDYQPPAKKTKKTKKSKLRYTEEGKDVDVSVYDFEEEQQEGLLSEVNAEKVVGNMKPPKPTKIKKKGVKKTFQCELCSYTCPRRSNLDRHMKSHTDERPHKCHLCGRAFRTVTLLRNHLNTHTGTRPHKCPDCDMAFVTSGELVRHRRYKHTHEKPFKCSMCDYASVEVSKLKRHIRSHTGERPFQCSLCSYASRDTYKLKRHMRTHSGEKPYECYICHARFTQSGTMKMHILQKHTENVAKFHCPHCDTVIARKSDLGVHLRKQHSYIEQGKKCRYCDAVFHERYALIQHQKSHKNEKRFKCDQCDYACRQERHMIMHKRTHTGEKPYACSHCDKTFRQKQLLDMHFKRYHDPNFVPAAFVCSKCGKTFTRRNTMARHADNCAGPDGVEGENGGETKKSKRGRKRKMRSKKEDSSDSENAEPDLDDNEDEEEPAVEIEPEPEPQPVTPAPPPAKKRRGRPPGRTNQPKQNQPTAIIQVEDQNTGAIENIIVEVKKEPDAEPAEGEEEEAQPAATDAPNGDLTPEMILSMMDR

B1: White-M5 (G allele) (dsDNA)
DNA 1: ACTTCTGCCACTGGAGGCAGGAGGG
DNA 2: CCCTCCTGCCTCCAGTGGCAGAAGT
B2: Blue-M5 (A allele) (dsDNA)
DNA 1: ACTTCTGCCACTAGAGGCAGGAGGG
DNA 2: CCCTCCTGCCTCTAGTGGCAGAAGT

Assays:
CTCF [1] = target: T1, CTCF; test: EMSA supershift; anti-CTCF antibody; Buffer, salt, pH and temperature not given; 40 pmol biotin probe, 200-fold cold competitor, 5% non-denaturing PAGE, LightShift Chemiluminescent EMSA kit; settings: protein: recombinant; label: 5'-biotin on strand 1; blunt
CTCF [2] = target: T1, CTCF; test: EMSA supershift; anti-CTCF antibody; supershift evident; Buffer, salt, pH and temperature not given; 40 pmol biotin probe, 200-fold cold competitor, 5% non-denaturing PAGE, LightShift Chemiluminescent EMSA kit; settings: protein: recombinant; label: 5'-biotin on strand 1; blunt

Binder | binding result (CTCF [1]) | binding result (CTCF [2])
B1 | no binding | 
B2 |  | binds
